# Positions count from the first letter of the chain named.
# B1: VHH clone Ig-S506 (cluster Ig-7) (VHH)
# VHH: QVQLVESGGGLVQAGGSLRLSCAASGFTFDDYVIGWFRQAPGKEREGVSCISSSDGSTNYADSVKGRFTISSDNAKNTVYLQMNSLKPEDTAVYYCAEGPTVLDGCIYDSGSYYFSWGQGTQVTVSS
# B2: VHH clone Ig-S8492 (cluster Ig-7) (VHH)
# VHH: B1 VHH with S57R, N59D, E98A, D109Y
# B3: VHH clone Ig-S675 (cluster Ig-7) (VHH)
# VHH: B1 VHH with S25T, P41S, S52R, S57D, N59Y, I70V, Y108V, G111E
# B4: VHH clone Ig-S1139 (cluster Ig-7) (VHH)
# VHH: B1 VHH with N59Y, Y108V
# B5: VHH clone Ig-S6584 (cluster Ig-7) (VHH)
# VHH: B1 VHH with V33I, I34V, S52R, I70V, G111E
# Molecular target: Fab of trastuzumab (human)
# Experiment: SPR; Fab of trastuzumab amine-coupled to a CM5 chip (1,000 RU), VHH as analyte in a 1/2 dilution series; Biacore X100, HBS-EP (10 mM HEPES pH 7.4, 150 mM NaCl, 3 mM EDTA, 0.005% P20), 20°C, 10 µL/min, association 360 s, dissociation 800 s; 1:1 binding model
Kd [nM],koff [s⁻¹],kon [M⁻¹ s⁻¹],Binder
246,0.0073,29700,B1
123,0.000245,1990,B2
0.155,4.71e-05,303000,B3
233,0.00554,23700,B4
5.99,0.000221,36900,B5
